From PMC8184831

Tested on: SOX2 (hSOX2) (human)
Assay: EMSA
Settings: Plasmid EMSA: 60 mM KCl, 12 mM Hepes pH 7.9, 2 mM MgCl2, 1 mM DTT, 0.12 mM EDTA, 12% glycerol, 0.01% NP40, 10 ng/uL DNA, 15 min 30 C; 0.8% agarose 0.5x TBE. …

Substance | binding signal (fold higher Kd than specific site) | Kd
SOX2 non-specific-site EMSA probe | 30 | 
SOX2 specific-site EMSA probe |  | 2 nM
